# Source: US20120225828A1 (PALATIN TECHNOLOGIES, published 2012)
# Bridge positions count the residues as written; N and C are the ends. Square brackets hold non-standard residues; d marks the D form. Cit = NC(=O)NCCC[C@H](N)C(=O)O; Nle = CCCC[C@H](N)C(=O)O; Orn = NCCC[C@H](N)C(=O)O; Dab = NCC[C@H](N)C(=O)O; Dap = NC[C@H](N)C(=O)O
# B1: Ac-Nle-cyclo(Glu-His-D-Phe-Gly-Dab)-Trp-NH2 (peptide)
# peptide: Ac-[Nle]EH[dF]G[Dab]W-NH2
# modifications: lactam 2-6
# SMILES: CCCC[C@H](NC(C)=O)C(=O)N[C@H]1CCC(=O)NCC[C@@H](C(=O)N[C@@H](Cc2c[nH]c3ccccc23)C(N)=O)NC(=O)CNC(=O)[C@@H](Cc2ccccc2)NC(=O)[C@H](Cc2c[nH]cn2)NC1=O
# B2: Ac-Nle-cyclo(Glu-His-D-Phe-Ala-Dab)-Trp-NH2 (SEQ ID NO: 51) (peptide)
# peptide: Ac-[Nle]EH[dF]A[Dab]W-NH2
# modifications: lactam 2-6
# SMILES: CCCC[C@H](NC(C)=O)C(=O)N[C@H]1CCC(=O)NCC[C@@H](C(=O)N[C@@H](Cc2c[nH]c3ccccc23)C(N)=O)NC(=O)[C@H](C)NC(=O)[C@@H](Cc2ccccc2)NC(=O)[C@H](Cc2c[nH]cn2)NC1=O
# B3: Ac-Nle-cyclo(Glu-His-D-Phe-Ala-Dab)-NH2 (SEQ ID NO: 48) (peptide)
# peptide: Ac-[Nle]EH[dF]A[Dab]-NH2
# modifications: lactam 2-6
# SMILES: CCCC[C@H](NC(C)=O)C(=O)N[C@H]1CCC(=O)NCC[C@@H](C(N)=O)NC(=O)[C@H](C)NC(=O)[C@@H](Cc2ccccc2)NC(=O)[C@H](Cc2c[nH]cn2)NC1=O
# B4: Ac-Nle-cyclo(Glu-His-D-Phe-Arg-Dab)-Lys-NH2 (peptide)
# peptide: Ac-[Nle]EH[dF]R[Dab]K-NH2
# modifications: lactam 2-6
# SMILES: CCCC[C@H](NC(C)=O)C(=O)N[C@H]1CCC(=O)NCC[C@@H](C(=O)N[C@@H](CCCCN)C(N)=O)NC(=O)[C@H](CCCNC(=N)N)NC(=O)[C@@H](Cc2ccccc2)NC(=O)[C@H](Cc2c[nH]cn2)NC1=O
# B5: Ac-Nle-cyclo(Glu-His-D-Phe-Ala-Dab)-Trp-NH2 (peptide)
# peptide: Ac-[Nle]EH[dF]A[Dab]W-NH2
# modifications: lactam 2-6
# SMILES: CCCC[C@H](NC(C)=O)C(=O)N[C@H]1CCC(=O)NCC[C@@H](C(=O)N[C@@H](Cc2c[nH]c3ccccc23)C(N)=O)NC(=O)[C@H](C)NC(=O)[C@@H](Cc2ccccc2)NC(=O)[C@H](Cc2c[nH]cn2)NC1=O
# B6: Ac-Nle-cyclo(Glu-His-D-Phe-Gly-Dab)-Trp-NH2 (SEQ ID NO: 50) (peptide)
# peptide: Ac-[Nle]EH[dF]G[Dab]W-NH2
# modifications: lactam 2-6
# SMILES: CCCC[C@H](NC(C)=O)C(=O)N[C@H]1CCC(=O)NCC[C@@H](C(=O)N[C@@H](Cc2c[nH]c3ccccc23)C(N)=O)NC(=O)CNC(=O)[C@@H](Cc2ccccc2)NC(=O)[C@H](Cc2c[nH]cn2)NC1=O
# B7: Ac-Nle-cyclo(Asp-His-D-Phe-Arg-Dap)-Trp-NH2 (peptide)
# peptide: Ac-[Nle]DH[dF]R[Dap]W-NH2
# modifications: lactam 2-6
# SMILES: CCCC[C@H](NC(C)=O)C(=O)N[C@H]1CC(=O)NC[C@@H](C(=O)N[C@@H](Cc2c[nH]c3ccccc23)C(N)=O)NC(=O)[C@H](CCCNC(=N)N)NC(=O)[C@@H](Cc2ccccc2)NC(=O)[C@H](Cc2c[nH]cn2)NC1=O
# B8: Ac-Nle-cyclo(Glu-His-D-Phe-Dab)-NH2 (peptide)
# peptide: Ac-[Nle]EH[dF][Dab]-NH2
# modifications: lactam 2-5
# SMILES: CCCC[C@H](NC(C)=O)C(=O)N[C@H]1CCC(=O)NCC[C@@H](C(N)=O)NC(=O)[C@@H](Cc2ccccc2)NC(=O)[C@H](Cc2c[nH]cn2)NC1=O
# B9: Ac-Nle-cyclo(Glu-His-D-Phe-Arg-Dab)-NH2 (SEQ ID NO: 47) (peptide)
# peptide: Ac-[Nle]EH[dF]R[Dab]-NH2
# modifications: lactam 2-6
# SMILES: CCCC[C@H](NC(C)=O)C(=O)N[C@H]1CCC(=O)NCC[C@@H](C(N)=O)NC(=O)[C@H](CCCNC(=N)N)NC(=O)[C@@H](Cc2ccccc2)NC(=O)[C@H](Cc2c[nH]cn2)NC1=O
# Target: human melanocortin-1 receptor hMCR-1 expressed by the human melanoma cell line HBL (human, UniProt Q01726 1-317)
# Assay: cell-based or functional assay
# human melanocortin-1 receptor hMCR-1 expressed by the human melanoma cell line HBL, sequence (Q01726 whole entry): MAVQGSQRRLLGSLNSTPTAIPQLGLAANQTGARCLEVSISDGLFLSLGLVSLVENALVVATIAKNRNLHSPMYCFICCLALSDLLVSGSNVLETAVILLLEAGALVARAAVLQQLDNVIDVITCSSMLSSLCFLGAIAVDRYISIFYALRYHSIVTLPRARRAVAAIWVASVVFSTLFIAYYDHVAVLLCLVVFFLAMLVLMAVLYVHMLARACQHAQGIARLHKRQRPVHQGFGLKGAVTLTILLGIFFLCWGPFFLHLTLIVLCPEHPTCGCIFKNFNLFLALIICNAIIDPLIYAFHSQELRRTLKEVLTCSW
Binder,MC-1 EC50 (average; cAMP HBL),MC-1 Emax (average; cAMP HBL)
B1,4 nM,59%
Ac-[Nle]ER[dF]R[Dab]W-NH2 (lactam 2-6) [Ac-Nle-cyclo(Glu-Arg-D-Phe-Arg-Dab)-Trp-NH2 (SEQ ID NO: 53)],–,100%
B2,0.115 nM,72%
B3,44 nM,73%
Ac-[Nle]E[Cit][dF]R[Dab]W-NH2 (lactam 2-6) [Ac-Nle-cyclo(Glu-Cit-D-Phe-Arg-Dab)-Trp-NH2],–,97%
Ac-[Nle]EA[dF]R[Dab]W-NH2 (lactam 2-6) [Ac-Nle-cyclo(Glu-Ala-D-Phe-Arg-Dab)-Trp-NH2],–,86%
Ac-[Nle]ER[dF]R[Dab]W-NH2 (lactam 2-6) [Ac-Nle-cyclo(Glu-Arg-D-Phe-Arg-Dab)-Trp-NH2],–,100%
B4,0.175 nM,91%
B5,0.115 nM,72%
B6,4 nM,59%
Ac-[Nle][Dap]H[dF]R[Dab]W-NH2 (linker 2-6 via C(:O)‑(CH2)2‑C(:O)) [Ac-Nle-cyclo(Dap-His-D-Phe-Arg-Dab)-Trp-NH2 with bridge C(═O)-(CH2)2-C(═O)],0.016 nM,85%
Ac-[Nle]EK[dF]R[Dab]W-NH2 (lactam 2-6) [Ac-Nle-cyclo(Glu-Lys-D-Phe-Arg-Dab)-Trp-NH2],–,108%
Ac-[Nle]EA[dF]R[Dab]W-NH2 (lactam 2-6) [Ac-Nle-cyclo(Glu-Ala-D-Phe-Arg-Dab)-Trp-NH2 (SEQ ID NO: 52)],–,86%
Ac-[Nle]E[Dab][dF]R[Dab]W-NH2 (lactam 2-6) [Ac-Nle-cyclo(Glu-Dab-D-Phe-Arg-Dab)-Trp-NH2],–,108%
B7,0.195 nM,88%
B8,–,51%
Ac-[Nle]E[Orn][dF]R[Dab]W-NH2 (lactam 2-6) [Ac-Nle-cyclo(Glu-Orn-D-Phe-Arg-Dab)-Trp-NH2],–,109%
B9,0.32 nM,85%
